# Entries after “also recorded” stand apart in the source; their conditions may differ. Where no end group is shown, it is not given here. [ ]: non-standard residue; d: D form. Ahx = NCCCCCC(=O)O
# Key:
# [1] = Dynamic light scattering and zeta potential of nanoparticles; type: physicochemical; conditions: CPP:siRNA R = 20, 5% glucose; for Mean size (nm) I (%): intensity; for Mean size (nm) Nb (%): number
# Method: Dynamic light scattering (DLS) and Zeta potential (ZP). CPPs:siRNA nanoparticles were evaluated with a Zetasizer NanoZS (Malvern) in terms of mean size (Z-average) of the particle distribution and of homogeneity (PdI). Zeta potential was determined in 5% glucose+5 mM of NaCl. All results were obtained from three independent measurements (three runs for each measurement at 25° C.).
# [2] = tested on: firefly luciferase (FLuc) in U87 cells; test: Luciferase reporter gene silencing assay; type: cell-based, human; conditions: for Luciferase knock-down at R=40 relative to R=20: R=40, siFLuc 20 nM; for Activity of nanoparticles in luciferase silencing: R=20, siFLuc, compared with parent CPP
# Method: Transfection experiments. For Luciferase assay, the different cells (5,000 cells per well) were seeded 24 h before experiment into 96-well plates using the corresponding medium as described above. […] In the meantime, the growth medium covering the cells was replaced by 70 μL of fresh pre-warmed serum-free DMEM. […] After the addition of DMEM supplemented with 20% FBS (final FBS concentration=10%), cells were further incubated for 36 h and finally lysed for the luciferase detection. For transfection in the presence of serum, cells were incubated with nanoparticles in DMEM+10% FBS for 1.5 h at 37° C., and then DMEM supplemented with 10% FBS were added to the cells which were further incubated for 36 h before the final cell lyses for the luciferase detection.
# Luciferase reporter gene silencing assay. The evaluation of siRNA delivery using the different vectors was carried out by measuring the remaining luciferase firefly (FLuc) activity in cell lysates. Briefly, after 36 h, the medium covering the cells was carefully removed and replaced by 50 μL of 0.5× Passive Lysis Buffer (PLB; Promega). After 30 min of shaking at 4° C., plates containing the cells were centrifuged (10 min, 1,800 rpm, 4° C.) and 5 μL of each cell lysate supernatant were finally transferred into a white 96-well plate. For the U87-FLuc-NLuc cells, both luciferase activities were quantified using a plate-reading luminometer (POLARstar Omega, BMG Labtech) using half-diluted Dual Luciferase Assay Reagents (Promega) as reported elsewhere (G. Aldrian, et al., (2017) J. Control. Release Off. J. Control. Release Soc. 256, 79-91). The results were expressed as percentage of relative light units (RLU) for each luciferase normalized first to non-treated cells (% FLuc and % NLuc) and then normalized to the value of % NLuc to obtain the Relative Luc Activity (% FLuc/% NLuc).
# Cellular activity of CPP-based nanoparticles was evaluated in a luciferase screening assay, as previously described (L. N. Patel, et al., (2007) Pharm. Res. 24, 1977-1992; A. Elmquist, et al., (2001) Exp. Cell Res. 269, 237-244)). The knock-down efficiency of the different CPP:siRNA nanoparticles was performed on U87 cell line stably transfected for constitutive expression of FLuc/NLuc reporter genes (U87-FRT-CMV/Fluc-CMV/iRFP-IRES-NLuc).
# [3] = Circular dichroism conformational analysis; type: physicochemical; conditions: for Conformation by circular dichroism, PEPTIDE +siRNA: CPP:siRNA molar ratio R 20, CPP 40 μM; for Conformation by circular dichroism, PEPTIDE +siRNA +charged LUVs / Conformation by circular dichroism, PEPTIDE +siRNA +neutral LUVs: R 20, CPP:lipid r 10, CPP 40 μM; for Conformation by circular dichroism, PEPTIDE: peptide free in solution, CPP 40 μM, rc = random coiled
# Method: Circular dichroism (CD) measurements. CD spectra were recorded on a Jasco 810 (Japan) dichrograph in quartz suprasil cells (Hellma) with an optical path of 1 mm for peptide in solution or in the presence of liposomes vesicles. The same concentrations of peptide (40 μM) was used for each condition. Spectra were obtained from 3 accumulations between 190 nm and 260 nm with a data pitch of 0.5 nm, a bandwidth of 1 nm and a standard sensitivity.
# The predicted structures were then compared to experimental investigations. Circular dichroism spectra were recorded for the peptides free in solution, afterwards for the peptides in the presence of siRNA and then after the addition of liposomes.
substance,measurement,setting,value
RLLWRLWRLLWRLWRLLR (CPP1-6R),PdI,[1],0.42 ± 0.08
same,Mean size (nm) I (%),[1],125.3 ± 65.1 nm
same,Mean size (nm) Nb (%),[1],23.3 ± 3.4 nm
RLLWRLW-----LWRLLR (RLLWRLWLWRLLR; CPP1-4R),PdI,[1],0.50 ± 0.04
same,Mean size (nm) I (%),[1],1012 ± 984 nm
same,Mean size (nm) Nb (%),[1],422 ± 498 nm
"RLLRLLWWWLLRLLR-NH2 [CPP2-4R, RLLRLL-WWW-LLRLLR]",Cytotoxic effect inferred from variability of luciferase measurement,[2]; nanoparticle incubation,some cytotoxic effect
RGD-Ahx-LLRLLRWWWRLLRLL (RGD[Ahx]LLRLLRWWWRLLRLL) [R-CPP2],Reduction in the expression of luciferase,"[2]; RGD-grafted peptide, R=20",~70%
LLRLLRWWWWRLLRLL [CPP4],"Conformation by circular dichroism, PEPTIDE +siRNA",[3],alpha helical structure; also recorded: helix
same,"Conformation by circular dichroism, PEPTIDE +siRNA +charged LUVs",[3],helix
same,"Conformation by circular dichroism, PEPTIDE +siRNA +neutral LUVs",[3],helix
same,"Conformation by circular dichroism, PEPTIDE",[3],turn
same,Mean size (nm) I (%),[1],122.0 ± 71.5 nm
same,Mean size (nm) Nb (%),[1],23.6 ± 7.9 nm
same,Luciferase knock-down at R=40 relative to R=20,[2],slightly increased
LRLRWWWRLRL (CPP2-1),Activity of nanoparticles in luciferase silencing,[2],total inactivity
LLRLLRWWRLLRLL (CPP3),"Conformation by circular dichroism, PEPTIDE +siRNA",[3],alpha helical structure; also recorded: helix
same,"Conformation by circular dichroism, PEPTIDE +siRNA +charged LUVs",[3],helix
same,"Conformation by circular dichroism, PEPTIDE +siRNA +neutral LUVs",[3],helix
same,"Conformation by circular dichroism, PEPTIDE",[3],turn
same,PdI,[1],around 0.3
same,Luciferase knock-down at R=40 relative to R=20,[2],slightly increased
RLLRLLRWWWRLLRLLR (CPP2-6R),PdI,[1],0.34 ± 0.03
same,Mean size (nm) I (%),[1],59.8 ± 9.3 nm
same,Mean size (nm) Nb (%),[1],25.9 ± 3.9 nm
LLRLRWWWRLRLL (CPP2-2),Activity of nanoparticles in luciferase silencing,[2],total inactivity

# Reference: US11905338B2, “Peptides for use as cell-penetrating peptides” (CENTRE NATIONAL DE LA RECHERCHE SCIENTIFIQUE, priority 2018, dated 2024)
